Test results taken from patent US7220822 (OHIO STATE UNIVERSITY, dated 2007).

Molecular target: T1, CD80-Ig (extracellular domain of CD80 fused with the constant region of mouse IgG1 heavy chain) (mouse)
T1 construct: extracellular domain; also called B7-1
Experiment: SPR (BIACORE), direct binding to immobilized CD80-Ig, linear regression plot
Procedure: Binding experiments were performed by surface plasmon resonance (SPR) on an instrument sold under the trademark BIACORE™ from Pharmacia Biosensor (Uppasala, Sweden). All experiments were performed at 37° C. using HBS-EP buffer (25 mM Hepes, pH7.4, […], 3.4 mM EDTA and, 005% surfactant P20) supplied by Pharmacia Biosensor.
CD80-Ig (extracellular domain of CD80 fused with the constant region of mouse IgG1 heavy chain) at 35 µg/ml in 10 mM sodium acetate buffer, pH 4.2, was coupled to a research grade CM 5 sensor chip using a standard amine coupling procedure with the following modifications (38). To reduce the immobilization level of the ligand, the surface was activated for 3 (instead of 7) minutes with N-hydroxysuccinamide and […]. […] Following coupling, noncovalently bound ligand was removed by washing twice with 5 mM NaOH.
Data for both k_a and k_d are quite consistent over the entire range of concentrations used. The difference between experimental and calculated data for both EL CD28 and RI CD28 peptide mimetics estimated by Chi^2 value is low being close to the noise level of the instrument. A linear regression plot of the rate of change in the response against response units was plotted using these values of k_a and k_d for each CD28 peptide analyte.

Kd: 2440 nM
B1: L-CD28 (free L CD28 peptide mimetic) (peptide)
peptide: H-KIEFMYPPPYLDNERSNGTI-OH
notes: also called Free L peptide
